Source: US7799901B2, “Modulators of the function of FAS receptors and other proteins” (Yeda Research and Development Co. Ltd., priority 1995, dated 2010)

T1: mouse Fas-IC (Mus musculus, UniProt P25446)
T1 construct: four constructs of the mouse Fas-IC; expressed in transfected cells; host or cells: SFY526 yeast
T1 sequence (P25446 187-327 limits assumed): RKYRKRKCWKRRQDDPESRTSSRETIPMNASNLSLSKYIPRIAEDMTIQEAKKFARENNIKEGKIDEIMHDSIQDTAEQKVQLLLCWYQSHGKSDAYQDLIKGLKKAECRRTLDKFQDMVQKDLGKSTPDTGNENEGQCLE

T2: p75 TNF receptor (Homo sapiens, UniProt P20333)
T2 construct: human p75 TNF receptor (p75-IC, residues 287-461); expressed in transfected cells; host or cells: SFY526 yeast
T2 sequence (P20333 287-461): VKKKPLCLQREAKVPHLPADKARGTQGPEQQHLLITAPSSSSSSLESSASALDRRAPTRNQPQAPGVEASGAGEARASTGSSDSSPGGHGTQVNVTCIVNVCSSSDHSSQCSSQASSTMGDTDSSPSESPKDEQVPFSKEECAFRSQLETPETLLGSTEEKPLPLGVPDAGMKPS

T3: GST-MORT-1 fusion protein (Homo sapiens, UniProt Q13158)
T3 construct: made in house
T3 sequence (Q13158 1-208): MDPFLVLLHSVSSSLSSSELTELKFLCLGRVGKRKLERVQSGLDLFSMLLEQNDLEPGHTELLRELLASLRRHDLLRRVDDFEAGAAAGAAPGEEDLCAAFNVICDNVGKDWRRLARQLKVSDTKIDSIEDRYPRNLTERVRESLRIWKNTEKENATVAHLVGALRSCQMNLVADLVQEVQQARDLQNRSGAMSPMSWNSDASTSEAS


Legend:
mouse Fas-IC = target: T1, mouse Fas-IC; assay: Two-hybrid test of MORT-1 binding (FIG. 1), mouse Fas-IC; settings: transfected SFY526 yeasts
From the text: (§1) To isolate proteins interacting with the intracellular domain of the FAS-R, the yeast two-hybrid system was used (Fields and Song, 1989). […] In this system, the genes for the candidate interacting proteins are cloned into separate expression vectors. In one expression vector, the sequence of the one candidate protein is cloned in phase with the sequence of the GAL4 DNA-binding domain to generate a hybrid protein with the GAL4 DNA-binding-domain, and in the other vector, the sequence of the second candidate protein is cloned in phase with the sequence of the GAL4 activation domain to generate a hybrid protein with the GAL4-activation domain. The two hybrid vectors are then co-transformed into a yeast host strain having a lacZ or HIS3 reporter gene under the control of upstream GAL4 binding sites. Only those transformed host cells (cotransformants) in which the two hybrid proteins are expressed and are capable of interacting with each other, will be capable of expressing the reporter gene. In the case of the lacZ reporter gene, host cells expressing this gene will become blue in color when X-gal is added to the cultures. […]
(§2) In FIG. 1, there is depicted the interaction of the proteins encoded by the Gal4 DNA binding domain and activation-domain constructs (pGBT9 and pGAD-GH) within transfected SFY526 yeasts as assessed by β-galactosidase expression filter assay. […]

p75 TNF receptor = target: T2, p75 TNF receptor; assay: Two-hybrid test of MORT-1 binding (FIG. 1), p75 TNF receptor; settings: p75-IC residues 287-461, FIG. 1
From the text: as §1, §2

[1] = target: T3, GST-MORT-1 fusion protein; assay: In vitro binding to GST-MORT-1 on glutathione-agarose beads
From the text: It has been shown also to contribute to, though not to suffice in, the self association of MORT-1 (see Example 1). […] To further assess the involvement of the MORT modules in these interactions, deletion mutants of MACHβ1, fused with the FLAG octapeptide (FLAG-MACHβ1), were expressed in HeLa cells and assessed for their binding in vitro to bacterial-produced […] fusion protein (GST-MORT-1). […] FIGS. 9A and 9B show the results (autoradiograms) of the in vitro interaction of MACHβ1 and its deletion mutants with MORT-1. Briefly, 35 [S] metabolically labeled MACHβ1, MACHβ1 fused at its N-terminus to the FLAG octapeptide (FLAG-MACHβ1), C-terminus truncation mutants of FLAG-MACHβ1, and, as a control, luciferase, were produced in transfected HeLa cells. Expression was done using a tetracycline-controlled expression vector, in a HeLa cell clone (HtTA-1) that expresses a tetracycline-controlled transactivator.
The antibodies used are as follows: Rabbit anti-MACHβ1 and anti-MORT1 antisera were raised against GST-MACHβ1 and GST-MORT1 fusion proteins. Mouse monoclonal antibodies against the FLAG octapeptide (M2) and against FAS/APO1 (CH11, Yonehara et al, 1989) were purchased from Eastman Kodak and Oncor (Gaithersburg, Md.) respectively. […]

| Molecule | binding to mouse Fas-IC in two-hybrid test (mouse Fas-IC) | binding to p75 TNF receptor in two-hybrid test (p75 TNF receptor) | in vitro binding to GST-MORT-1 fusion protein [1] |
| --- | --- | --- | --- |
| MORT-1: Mediator of Receptor-induced Toxicity; protein binding the intracellular domain of FAS-R, SEQ ID NO:2 (protein) VNQAPECRFGGGILGPLGKRRDLARASEPRTEGARRAGPQPRPLADPAMDPFLVLLHSVSSSLSSSELTELKFLCLGRVVKRKLERVQSGLDLFSMLLEQNDLEPGHTELLRELLASLRRHDLLRRVDDFEAGAAAGAAPGEEDLCAAFNVICDNVGKDWRRLARQLKVSDTKIDSIEDRYPRNLTERVRESLRIWKNTEKENATVAHLVGALRSCQMNLVADLVQEVQQARDLQNRSGAMSPMSWNSDASTSEAS | binds | not | – |
| MACHβ1: MACH isoform, cDNA SEQ ID NO: 4, amino acid SEQ ID NO: 5; lacks the CED3/ICE homology region (protein) MDFSRNLYDIGEQLDSEDLASLKFLSLDYIPQRKQEPIKDALMLFQRLQEKRMLEESNLSFLKELLFRINRLDLLITYLNTRKEEMERELQTPGRAQISAYRVMLYQISEEVSRSELRSFKFLLQEEISKCKLDDDMNLLDIFIEMEKRVILGEGKLDILKRVCAQINKSLLKIINDYEEFSKERSSSLEGSPDEFSNDFGQSLPNEKQTSGILSDHQQSQFCKSTGESAQTSQH | – | – | able to bind |
